Measurements published in article PMC10645074, “Insulin receptor Arg717 and IGF-1 receptor Arg704 play a key role in ligand binding and in receptor activation” (Open Biology, 2023).

Target: T1, 125I-TyrA14 human insulin (human, 125I on TyrA14 (specific activity 2200 Ci/mmol))
T1 construct: insulin A chain, human, cut product of proinsulin; insulin B chain, human, cut product of proinsulin; also called ^125I-HI; HI
Test: radioligand binding; saturation binding of the 125I-labelled ligand (0.05-5 nM) to isolated ectodomain-mCherry (300 ng/well) immobilised through its HisTag on 96-well plates by nickel-NTA iBodies with biotin on neutravidin; otherwise as the whole-cell assay; one-site specific binding fit
Conditions: both partners purified

Kd: 0.27 nM
B1: isolated ecto-IR-A Arg717Gln conjugated with mCherry (domain or fragment)
chain 1: HLYPGEVCPGMDIRNNLTRLHELENCSVIEGHLQILLMFKTRPEDFRDLSFPKLIMITDYLLLFRVYGLESLKDLFPNLTVIRGSRLFFNYALVIFEMVHLKELGLYNLMNITRGSVRIEKNNELCYLATIDWSRILDSVEDNYIVLNKDDNEECGDICPGTAKGKTNCPATVINGQFVERCWTHSHCQKVCPTICKSHGCTAEGLCCHSECLGNCSQPDDPTKCVACRNFYLDGRCVETCPPPYYHFQDWRCVNFSFCQDLHHKCKNSRRQGCHQYVIHNNKCIPECPSGYTMNSSNLLCTPCLGPCPKVCHLLEGEKTIDSVTSAQELRGCTVINGSLIINIRGGNNLAAELEANLGLIEEISGYLKIRRSYALVSLSFFRKLRLIRGETLEIGNYSFYALDNQNLRQLWDWSKHNLTITQGKLFFHYNPKLCLSEIHKMEEVSGTKGRQERNDIALKTNGDQASCENELLKFSYIRTSFDKILLRWEPYWPPDFRDLLGFMLFYKEAPYQNVTEFDGQDACGSNSWTVVDIDPPLRSNDPKSQNHPGWLMRGLKPWTQYAIFVKTLVTFSDERRTYGAKSDIIYVQTDATNPSVPLDPISVSNSSSQIILKWKPPSDPNGNITHYLVFWERQAEDSELFELDYCLKGLKLPSRTWSPPFESEDSQKHNQSEYEDSAGECCSCPKTDSQILKELEESSFRKTFEDYLHNVVFVPQPS
chain 2: SLGDVGNVTVAVPTVAAFPNTSSTSVPTSPEEHRPFEKVVNKESLVISGLRHFTGYRIELQACNQDTPEERCSVAAYVSARTMPEAKADDIVGPVTHEIFENNVVHLMWQEPKEPNGLIVLYEVSYRRYGDEELHLCVSRKHFALERGCRLRGLSPGNYSVRIRATSLAGNGSWTEPTYFYVTDYLDVPSNIAK
